Reference: publication PMC4980077

Assays:
[1] = target: smAKAP-wt-GFP (human) (UniProt Q9BSF0); assay: FRET or BRET
[2] = target: PKA-RIβ (Homo sapiens) (UniProt P31321); assay: fluorescence polarization; conditions: cited from earlier work
[3] = target: PKA-RIα (Homo sapiens) (UniProt P10644); assay: fluorescence polarization; conditions: cited from earlier work
PKA-RIα (Homo sapiens), sequence (P10644 whole entry): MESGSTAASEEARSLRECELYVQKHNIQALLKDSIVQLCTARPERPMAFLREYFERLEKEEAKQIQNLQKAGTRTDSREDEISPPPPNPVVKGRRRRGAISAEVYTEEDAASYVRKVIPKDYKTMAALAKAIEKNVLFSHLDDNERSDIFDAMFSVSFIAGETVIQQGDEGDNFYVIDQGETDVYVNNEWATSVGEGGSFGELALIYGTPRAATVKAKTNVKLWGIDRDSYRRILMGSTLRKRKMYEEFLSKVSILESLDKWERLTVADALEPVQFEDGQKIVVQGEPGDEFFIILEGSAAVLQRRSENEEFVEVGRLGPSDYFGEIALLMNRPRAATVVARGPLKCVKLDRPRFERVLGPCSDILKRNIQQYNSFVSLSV

smAKAP, sequence (Q9BSF0 2-95): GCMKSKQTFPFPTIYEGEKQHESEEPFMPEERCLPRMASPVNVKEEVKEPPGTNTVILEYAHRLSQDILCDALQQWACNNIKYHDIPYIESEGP
smAKAP-wt-GFP (human), sequence (Q9BSF0 whole entry): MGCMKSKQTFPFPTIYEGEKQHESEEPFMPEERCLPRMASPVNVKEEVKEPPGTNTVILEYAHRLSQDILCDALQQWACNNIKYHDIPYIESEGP

Row | change of FRET signal after forskolin [1] [%] | Substance | Kd [2] [nM] | Kd [3] [nM]
1 | -2.3 | PKA-RIβ-mKO2 (from UniProt P31321 1-381) (natural protein) |  | 
2 |  | smAKAP (from UniProt Q9BSF0) | 6.9 | 6.7
